Data taken from patent US20260029420A1, “ANTI-CB2 ANTIBODIES AND THEIR USE IN A FLOW CYTOMETRY ASSAY TO MEASURE CELL SURFACE CB2 EXPRESSION” (Hoffmann-La Roche Inc., priority 2022, published 2026).

Tests used:
Type in all cases: binding
CHO K1 h CB2 cell line = target: T1, CHO K1 h CB2 cell line (Homo sapiens, UniProt P34972); assay: Flow cytometry with increasing antibody levels on CHO K1 cells; details: 0.1, 1 or 10 μg/ml antibody; CHO K1 hCB2
T1 construct: expressed in transfected cells; host or cells: CHO K1
T1 sequence (P34972 whole entry): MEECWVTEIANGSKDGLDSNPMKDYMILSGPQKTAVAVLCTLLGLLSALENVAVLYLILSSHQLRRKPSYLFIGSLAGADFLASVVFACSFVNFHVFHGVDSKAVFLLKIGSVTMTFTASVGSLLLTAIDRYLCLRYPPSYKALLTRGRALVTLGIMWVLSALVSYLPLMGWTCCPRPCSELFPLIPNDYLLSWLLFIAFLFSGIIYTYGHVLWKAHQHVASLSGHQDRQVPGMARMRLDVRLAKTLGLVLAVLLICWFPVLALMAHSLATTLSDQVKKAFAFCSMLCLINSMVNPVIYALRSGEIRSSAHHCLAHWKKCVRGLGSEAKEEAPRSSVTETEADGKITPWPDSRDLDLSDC
Text: (§1) FIG. 3: Analysis of the specificity of the anti hCB2 antibody 1/622 for hCB2. Flow cytometric analysis with increasing concentrations of hCB2 antibody 1/622 in CHO cells transfected with hCB2 (light brick) and hCB1 (dark brick). Untransfected CHO cells (black) serve as a negative control. For detection an F(ab)2 goat-anti Mouse IgG3 PE antibody was used.
(§2) Further evidence for the specificity of the anti-human CB2 antibody 1/622 was generated by flow cytometry experiments using increasing levels of the antibody on untransfected, hCB1 or hCB2 transfected CHO K1.
(§3) The cells were washed 1× with 1× DPBS without CaCl2 and MgCl2 (Gibco, #14190-094). Accutase (Sigma, #A6964) was added and the cell were placed back in the incubator. Once the cells had detached, they were collected in a Falcon tube containing DMEM high glucose+GlutaMAX (Gibco, #31966-021) and 10% heat inactivated FBS (Gibco, #16140-071). Cells were centrifuged for 5 minutes at 250×g and 4° C. and the cell pellet was resuspended in cell staining buffer (BioLegend, #420201) and put them on ice until further usage. The cells were incubated with 0.1, 1 or 10 μg/ml hCB2-1/622 antibody and incubated for 30 minutes at 4° C. After the incubation, the tubes were centrifuged for 5 minutes with 250×g and 4° C. The supernatant was removed completely, cells were washed two times with cold cell staining buffer and supernatant removed completely after the centrifugation. Human FcR Blocking Reagent (Miltenyi Biotech, Cat #130-059-901) was diluted according to the package insert instructions with cold cell staining buffer. To each sample 50 μl was added, mixed and incubated for 10 minutes at 4° C. The secondary antibody Goat F(ab′)2 Anti-Mouse IgG3 PE (Southern Biotech, Cat #1102-09) was diluted 1:25 in cold cell staining buffer. To each sample 50 μl was added, mixed and incubated for 30 minutes at 4° C. in the dark. After the incubation cells were washed 2× with cold cell staining buffer and supernatant removed completely after centrifugation. […]

CHO K1 hCB1R = target: T2, CHO K1 hCB1R (Homo sapiens, UniProt P21554); assay: as above; details: 0.1, 1 or 10 μg/ml antibody
T2 construct: expressed in transfected cells; host or cells: CHO K1
T2 sequence (P21554 whole entry): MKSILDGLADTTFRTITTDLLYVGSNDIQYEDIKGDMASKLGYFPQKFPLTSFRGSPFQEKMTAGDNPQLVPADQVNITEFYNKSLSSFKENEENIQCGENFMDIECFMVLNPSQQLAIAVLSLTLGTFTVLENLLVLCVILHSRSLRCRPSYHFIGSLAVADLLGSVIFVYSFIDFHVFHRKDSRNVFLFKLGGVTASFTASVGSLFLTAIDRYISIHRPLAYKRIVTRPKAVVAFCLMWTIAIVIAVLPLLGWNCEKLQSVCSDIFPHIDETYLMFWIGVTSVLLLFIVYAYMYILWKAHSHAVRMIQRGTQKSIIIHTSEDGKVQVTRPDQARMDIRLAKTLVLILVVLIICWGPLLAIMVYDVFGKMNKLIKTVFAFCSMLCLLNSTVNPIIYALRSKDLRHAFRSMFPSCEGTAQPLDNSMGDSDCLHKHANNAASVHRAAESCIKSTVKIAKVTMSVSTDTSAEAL
Text: as §1, §2, §3

[1] = test system: untransfected CHO K1 controls; assay: as above; details: 0.1, 1 or 10 μg/ml antibody
Text: as §1, §2, §3

CHO-A2 mCB2 = target: T3, CHO-A2 mCB2 (Mus musculus, UniProt P47936); assay: Immunofluorescence on methanol-fixed transfected cells; parameters: key to immunofluorescence signal intensity: “−” no fluorescence detected; “+”-“++++” intensity of fluorescent signal; “+”-“++++” intensity of fluorescent signal; “+”-“++++” intensity of fluorescent signal; “+”-“++++” intensity of fluorescent signal
T3 construct: expressed in transfected cells
T3 sequence (P47936 whole entry): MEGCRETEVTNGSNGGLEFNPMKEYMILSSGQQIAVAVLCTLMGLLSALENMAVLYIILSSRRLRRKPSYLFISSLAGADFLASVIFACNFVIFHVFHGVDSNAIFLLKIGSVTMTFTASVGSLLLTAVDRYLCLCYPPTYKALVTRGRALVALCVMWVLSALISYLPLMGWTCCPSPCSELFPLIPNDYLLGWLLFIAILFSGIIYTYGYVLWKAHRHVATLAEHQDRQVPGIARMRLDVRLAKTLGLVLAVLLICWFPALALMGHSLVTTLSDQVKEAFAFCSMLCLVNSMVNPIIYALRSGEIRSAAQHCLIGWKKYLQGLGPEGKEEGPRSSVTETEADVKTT
Method: (§4) The positive clones (Table 1) were further characterized by immunofluorescence (IF; Table 2), Western Blot (Table 3, 1) and Immune precipitation (Table 4, 2) on full length hCB2, hCB1, mCB2 stable-transfected CHO-cell lines in addition to the 2 pANITA constructs.
(§5) For IF analysis, methanol-fixed cells were incubated for 20 min in a humid chamber at 37° C. with the respective hCB2 and mCB2 clones. After rinsing twice and washing for 15 min in PBS, 125 μg/ml FITC-conjugated […] anti-mouse IgG antibodies (RAM/IgG (H+L)/FITC, Nordic
(§6) Immunological Laboratories) diluted in PBS was added and incubated for 20 min in a humid chamber at 37° C. Cells were rinsed twice and washed for 15 min in PBS, mounted with mounting solution (50% PBS 50% glycerol) and covered with a coverslip. Staining was assessed by fluorescence microscopy on a Leica CTR500 fluorescence microscope and a Leica DFC300 FX digital camera.

CHODukx CRE hCB1 Cl.20 = target: T4, CHODukx CRE hCB1 Cl.20 (Homo sapiens, UniProt P21554); assay: as above; parameters: key to immunofluorescence signal intensity: “−” no fluorescence detected; “+”-“++++” intensity of fluorescent signal; “+”-“++++” intensity of fluorescent signal; “+”-“++++” intensity of fluorescent signal; “+”-“++++” intensity of fluorescent signal
T4 construct: expressed in transfected cells
T4 sequence (P21554 whole entry): as the sequence (P21554 whole entry) above
Method: as §4, §5, §6

CHODukx CRE hCB2 Cl.90 = target: T5, CHODukx CRE hCB2 Cl.90 (Homo sapiens, UniProt P34972); assay: as above; parameters: key to immunofluorescence signal intensity: “−” no fluorescence detected; “+”-“++++” intensity of fluorescent signal; “+”-“++++” intensity of fluorescent signal; “+”-“++++” intensity of fluorescent signal; “+”-“++++” intensity of fluorescent signal
T5 construct: expressed in transfected cells
T5 sequence (P34972 whole entry): as the sequence (P34972 whole entry) above
Method: as §4, §5, §6

pANITA3.1 mCB2 (JB176) = target: T6, pANITA3.1 mCB2 (JB176) (Mus musculus, UniProt P47936); assay: as above; parameters: key: “−” no fluorescence detected; “+”-“++++” intensity of fluorescent signal; “+”-“++++” intensity of fluorescent signal; “+”-“++++” intensity of fluorescent signal; “+”-“++++” intensity of fluorescent signal; details: pANITA3.1 mCB2 (JB176) cells
T6 construct: expressed in transfected cells; host or cells: HEK293
T6 sequence (P47936 with tags, fused parts or gaps): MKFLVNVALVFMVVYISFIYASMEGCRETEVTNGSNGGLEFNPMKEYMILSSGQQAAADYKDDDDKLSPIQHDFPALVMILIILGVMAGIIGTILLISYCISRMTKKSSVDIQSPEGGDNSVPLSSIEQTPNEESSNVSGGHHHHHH
Method: as §4, §5, §6

pANITA3.1 hCB2 (JB175) = target: T7, pANITA3.1 hCB2 (JB175) (Homo sapiens, UniProt P34972); assay: as above; parameters: key: “−” no fluorescence detected; “+”-“++++” intensity of fluorescent signal; “+”-“++++” intensity of fluorescent signal; “+”-“++++” intensity of fluorescent signal; “+”-“++++” intensity of fluorescent signal; details: pANITA3.1 hCB2 (JB175) cells
T7 construct: expressed in transfected cells; host or cells: HEK293
T7 sequence (P34972 with tags, fused parts or gaps): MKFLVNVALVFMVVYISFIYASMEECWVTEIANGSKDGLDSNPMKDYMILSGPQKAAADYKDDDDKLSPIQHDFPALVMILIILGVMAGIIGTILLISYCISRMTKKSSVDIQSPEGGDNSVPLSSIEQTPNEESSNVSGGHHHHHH
Method: as §4, §5, §6

B1: hCB2-1/622: murine IgG3 monoclonal anti-human CB2 antibody, VH SEQ ID NO: 1, VL SEQ ID NO: 2, HC SEQ ID NO: 3, LC SEQ ID NO: 4 (antibody)
heavy: EVQLQQSGPELVKPGASVKISCKTSGYTFTEYTMHWVRQSHGKSLEWIGGIDRYNGDTYYNQKFKDKATLTVDRSSSTAYMELRSLTSEDSAVYFCARNGAMDYWGQGISVTVSSATTTAPSVYPLVPGCSDTSGSSVTLGCLVKGYFPEPVTVKWNYGALSSGVRTVSSVLQSGFYSLSSLVTVPSSTWPSQTVICNVAHPASKTELIKRIEPRIPKPSTPPGSSCPPGNILGGPSVFIFPPKPKDALMISLTPKVTCVVVDVSEDDPDVHVSWFVDNKEVHTAWTQPREAQYNSTFRVVSALPIQHQDWMRGKEFKCKVNNKALPAPIERTISKPKGRAQTPQVYTIPPPREQMSKKKVSLTCLVTNFFSEAISVEWERNGELEQDYKNTPPILDSDGTYFLYSKLTVDTDSWLQGEIFTCSVVHEALHNHHTQKNLSRSPGK
light: DVVMTQTPLSLPVSLGDQASISCRSSQSLVHSNGNTYLHWFLQKPGQSPKLLIYKVSIRFSGVPDRFSGSGSGTDFTLKISRVEAEDLGVYFCSQSTHVPPLTFGAGTKLELKRADAAPTVSIFPPSSEQLTSGGASVVCFLNNFYPKDINVKWKIDGSERQNGVLNSWTDQDSKDSTYSMSSTLTLTKDEYERHNSYTCEATHKTSTSPIVKSFNRNEC
Q: What does the source list for B1?
A: median fluorescence intensity (MFI) signal (CHO K1 h CB2 cell line): dose related increase; median fluorescence intensity (MFI) signal (CHO K1 hCB1R): remained at background levels; median fluorescence intensity (MFI) signal [1]: remained at background levels; immunofluorescence signal intensity (CHO-A2 mCB2; CHO-A2 mCB2 cells): −; immunofluorescence staining (CHO-A2 mCB2; cells expressing mouse CB2): no staining; immunofluorescence signal intensity (CHODukx CRE hCB1 Cl.20; CHODukx CRE hCB1 Cl.20 cells): −; immunofluorescence staining (CHODukx CRE hCB1 Cl.20; cells expressing human CB1): no staining; immunofluorescence signal intensity (CHODukx CRE hCB2 Cl.90; CHODukx CRE hCB2 Cl.90 cells): +++; immunofluorescence staining (CHODukx CRE hCB2 Cl.90; the two cell lines expressing human CB2): high fluorescent signal intensities; immunofluorescence signal intensity (pANITA3.1 mCB2 (JB176)): −; immunofluorescence signal intensity (pANITA3.1 hCB2 (JB175)): ++++
